Experimental data: patent US20200339702A1 (ULTRAHUMAN THIRTEEN, published 2020)

Target: T1, rhesus monkey ERBB3 His tag, monomeric (rhesus monkey (Macaca mulatta), UniProt P21860 20-643 (human entry), limits assumed)
T1 chain: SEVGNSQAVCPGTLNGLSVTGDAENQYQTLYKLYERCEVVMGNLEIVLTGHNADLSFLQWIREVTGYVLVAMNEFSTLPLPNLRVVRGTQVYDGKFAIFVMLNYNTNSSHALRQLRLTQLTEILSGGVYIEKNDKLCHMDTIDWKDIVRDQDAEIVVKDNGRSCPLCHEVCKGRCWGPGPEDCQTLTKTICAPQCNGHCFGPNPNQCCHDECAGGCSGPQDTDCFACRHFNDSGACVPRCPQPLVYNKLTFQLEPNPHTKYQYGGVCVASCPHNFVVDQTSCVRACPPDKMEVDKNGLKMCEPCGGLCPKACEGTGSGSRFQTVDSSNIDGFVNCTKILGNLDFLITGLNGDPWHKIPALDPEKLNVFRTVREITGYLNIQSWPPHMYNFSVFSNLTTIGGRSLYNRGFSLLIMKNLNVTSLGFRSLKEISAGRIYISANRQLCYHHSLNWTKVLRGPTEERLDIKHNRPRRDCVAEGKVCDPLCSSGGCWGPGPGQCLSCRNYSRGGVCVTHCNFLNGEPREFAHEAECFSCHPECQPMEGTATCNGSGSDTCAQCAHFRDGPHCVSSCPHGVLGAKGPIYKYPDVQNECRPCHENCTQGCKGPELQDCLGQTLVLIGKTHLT
Assay: SPR (Biacore), captured IgG, monomeric ERBB3-His analyte

B1: 09D12 IgG1null (antibody, V domains shown)
VH: QVQLVESGGGLVKPGGSLRLSCAASGFTFSDYGMSWIRQAPGKGLEWVSTISDGGSYTYYADSVKGRFTISRDNAKNSLYLQMNSLRAEDTAVYYCAREYGDYDGFDYWGQGTLVTVSS
VL: DIQMTQSPSSLSASVGDRVTITCRASQSISSYLNWYQQKPGKAPKLLIYAASSLDSGVPSRFSGSGSGTDFTLTISSLQPEDFATYYCLQYDSTPLTFGGGTKVEIK
notes: Human IgG1null and human Ckappa
- Kd: 0.69 nM
- koff: 0.0074 s⁻¹
- kon: 1.1e+07 M⁻¹ s⁻¹
